Laboratory results reported in patent US6509447B1, “G protein chimeras and methods of screening compounds” (Glaxo Welcome Inc., priority 1997, dated 2003).

Assays:
serotonin 5HT1D receptor = target: T1, serotonin 5HT1D receptor (Homo sapiens, UniProt P28221); experiment: CPRG assay, MMY11 cells expressing 5-HT1D receptor plus Gα subunit; format: cell-based; parameters: key: weak activation insufficient to carry out curve-fitting was detected; NC: no coupling was detected
T1 construct: expressed in transfected cells; host or cells: Saccharomyces cerevisiae strain MMY11, plasmid pDT-PGK-5-HT1D
Procedure: Assay for combined FUS1-lacZ and FUS1-HIS3 Expression. In vivo assays of reporter gene induction (CPRG assays) were carried out by suspending cells to 0.02 OD600 in 200 μl SC-glucose (2%) lacking tryptophan, uracil and histidine. This medium was supplemented with agonists, and additionally 10 mM 3-aminotriazole and the β-galactosidase (lacZ) substrate chlorophenolred-β-D-galactopyranoside (CPRG; Boehringer) to a concentration of 0.1 mg/ml. To visualise the colour change reaction, the medium was buffered to pH 7 with 0.1 M sodium phosphate. The assay was conducted in a 96-well microtitre plate format. Plates were incubated for 24 hours without agitation, and absorbance at 570 nm was determined using a Victor microtitre plate reader (Wallac). EC50 values (+/−standard error) were estimated by curve-fitting, using the Robosage software package.
MMY11 was used in an experiment in which cells were transformed with pairs of plasmids as before, one to express a Gα subunit and the other a receptor expression construct. […] Where pheromone response pathway activation was detected, the agonist concentration required to yield a half-maximal response (EC50+/−standard error; all values in nM except where otherwise indicated) was determined by curve-fitting, and is shown in Table 4A. Where no coupling was detected, this is also indicated (NC).

melatonin ML1B receptor = target: T2, melatonin ML1B receptor (Homo sapiens, UniProt P49286); experiment: Reverse halo assay for FUS1-HIS3 expression, MMY9 cells, ML1B; format: cell-based; conditions: MMY9 cells with pRS314-GPA1 and ML1B receptor, 40 nmol melatonin
T2 construct: expressed in transfected cells; host or cells: Saccharomyces cerevisiae strains MMY9 and MMY11, plasmid pDT-PGK-ML1B
T2 sequence (P49286 1-362): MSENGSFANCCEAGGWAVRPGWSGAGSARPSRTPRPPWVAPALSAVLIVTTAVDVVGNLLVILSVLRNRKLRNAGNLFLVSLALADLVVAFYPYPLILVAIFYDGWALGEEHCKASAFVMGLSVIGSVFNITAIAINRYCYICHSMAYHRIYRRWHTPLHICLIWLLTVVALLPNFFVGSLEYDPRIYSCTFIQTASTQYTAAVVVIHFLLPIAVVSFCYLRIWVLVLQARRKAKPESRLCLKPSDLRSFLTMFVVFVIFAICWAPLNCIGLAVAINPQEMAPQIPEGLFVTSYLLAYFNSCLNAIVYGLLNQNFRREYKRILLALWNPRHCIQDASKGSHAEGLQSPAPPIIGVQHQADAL
Procedure: Assay for FUS1-HIS3 Expression. Reverse halo assays were carried out by growing MMY9 cells to early stationary phase (OD600≈4) in liquid SC-glucose (2%) medium lacking tryptophan and uracil. A uniform layer of cells (5×10^7) was plated to 22.5 cm by 22.5 cm bioassay dishes (Nunc) in 100 ml SC-glucose agar (1%) equilibrated to 50° C. This medium lacked tryptophan, uracil and histidine, and was supplemented with 10 mM 3-aminotriazole, and buffered to pH 7.0 with 0.1M sodium phosphate. Antibiotic discs were placed on the solidified agar, and a volume of agonist solution (1-5 μl) was applied to each disc. Plates were incubated at 30° C. for 3 days.
The four receptors were: the melatonin ML1B receptor, the serotonin 5HT1A receptor, the somatostatin SST2 receptor and the purinergic nucleotide receptor, P2Y2. […] Activation of the pheromone response pathway was monitored with two integrated reporter genes: […] allowing a growth readout in medium lacking histidine, and FUS1-lacZ allowing a β-galactosidase readout. […] Agonist-dependent activation of FUS1-HIS3 was determined by reverse halo assay in which agonists were applied to the filter discs in the arrangement shown in panel A, in quantities as follows: 3 nmol of somatostatin-14 (S-14); 40 nmol of melatonin (Mel); 3 nmol of α-factor; 100 nmol of UTP; 40 nmol of serotonin (5-HT). […]

T1 sequence (P28221 whole entry): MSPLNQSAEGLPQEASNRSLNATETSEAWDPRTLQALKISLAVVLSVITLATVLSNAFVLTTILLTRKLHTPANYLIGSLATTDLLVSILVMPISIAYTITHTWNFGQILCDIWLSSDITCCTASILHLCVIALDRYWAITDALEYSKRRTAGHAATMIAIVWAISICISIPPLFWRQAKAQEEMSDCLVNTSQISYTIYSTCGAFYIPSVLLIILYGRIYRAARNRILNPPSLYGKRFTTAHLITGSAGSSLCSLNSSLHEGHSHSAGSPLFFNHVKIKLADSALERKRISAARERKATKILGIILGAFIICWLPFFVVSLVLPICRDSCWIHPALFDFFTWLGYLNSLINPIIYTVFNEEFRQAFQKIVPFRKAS

B1: Gpa1p: endogenous yeast Gα subunit, product of the GPA1 gene (protein, UniProt P08539 2-472, looked up)
Guanine nucleotide-binding …: GCTVSTQTIGDESDPFLQNKRANDVIEQSLQLEKQRDKNEIKLLLLGAGESGKSTVLKQLKLLHQGGFSHQERLQYAQVIWADAIQSMKILIIQARKLGIQLDCDDPINNKDLFACKRILLKAKALDYINASVAGGSDFLNDYVLKYSERYETRRRVQSTGRAKAAFDEDGNISNVKSDTDRDAETVTQNEDADRNNSSRINLQDICKDLNQEGDDQMFVRKTSREIQGQNRRNLIHEDIAKAIKQLWNNDKGIKQCFARSNEFQLEGSAAYYFDNIEKFASPNYVCTDEDILKGRIKTTGITETEFNIGSSKFKVLDAGGQRSERKKWIHCFEGITAVLFVLAMSEYDQMLFEDERVNRMHESIMLFDTLLNSKWFKDTPFILFLNKIDLFEEKVKSMPIRKYFPDYQGRVGDAEAGLKYFEKIFLSLNKTNKPIYVKRTCATDTQTMKFVLSAVTDLIIQQNLKKIGII
coupling class where no EC50 could be fitted (serotonin 5HT1D receptor): NC | agonist-dependent activation of FUS1-HIS3 (halo of cell growth) (melatonin ML1B receptor): activated FUS1-HIS3 in response to melatonin
